IntAct's records for PubMed 24338975

B1: G-rich sequence factor 1 (Homo sapiens), Q12849 (parent)
chain: MAGTRWVLGALLRGCGCNCSSCRRTGAACLPFYSAAGSIPSGVSGRRRLLLLLGAAAAAASQTRGLQTGPVPPGRLAGPPAVATSAAAAAAASYSALRASLLPQSLAAAAAVPTRSYSQESKTTYLEDLPPPPEYELAPSKLEEEVDDVFLIRAQGLPWSCTMEDVLNFFSDCRIRNGENGIHFLLNRDGKRRGDALIEMESEQDVQKALEKHRMYMGQRYVEVYEINNEDVDALMKSLQVKSSPVVNDGVVRLRGLPYSCNEKDIVDFFAGLNIVDITFVMDYRGRRKTGEAYVQFEEPEMANQALLKHREEIGNRYIEIFPSRRNEVRTHVGSYKGKKIASFPTAKYITEPEMVFEEHEVNEDIQPMTAFESEKEIELPKEVPEKLPEAADFGTTSSLHFVHMRGLPFQANAQDIINFFAPLKPVRITMEYSSSGKATGEADVHFETHEDAVAAMLKDRSHVHHRYIELFLNSCPKGK

Variants of: B1
Settings: with psd10_human PSMD10, O75832
Chain of psd10_human PSMD10, O75832 (O75832 whole entry): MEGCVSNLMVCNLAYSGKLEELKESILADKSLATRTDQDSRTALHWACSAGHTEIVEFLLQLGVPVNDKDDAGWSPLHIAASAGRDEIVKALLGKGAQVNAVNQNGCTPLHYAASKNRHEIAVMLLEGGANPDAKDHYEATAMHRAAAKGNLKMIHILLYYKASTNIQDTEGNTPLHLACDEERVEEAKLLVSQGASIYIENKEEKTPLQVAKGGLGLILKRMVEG

| effect of a mutation on the interaction | Variant |
| --- | --- |
| disrupting interaction strength | E144A;E145A;D147A |
